Three sequences from the supplement of paper PMC6379048 can be followed below.

pKd: −log10 of the molar value.

What all share (test): Kd (EC50 corrected by depletion factor)
One data set concerns the target GPATCH11 (UniProt Q8N954). In short, it runs like this: (§1)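 Kd was calculated as EC50, taken from a four-parameter log-logistic fit, multiplied by a protein-dependent depletion factor. The assay used HEK293-FT lysate (2.5 mg protein/well) pre-incubated for 1 h at 4°C with free RNA oligos (0 nM to 30 μM), then incubated for 30 min at 4°C with the matching oligos bound through a 5′-amino-C6 linker to NHS-Sepharose beads. Bound proteins were measured by label-free LC-MS/MS and normalised to the control.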

The target of the next data set is T1, TSNAX (UniProt Q99598).
T1 sequence: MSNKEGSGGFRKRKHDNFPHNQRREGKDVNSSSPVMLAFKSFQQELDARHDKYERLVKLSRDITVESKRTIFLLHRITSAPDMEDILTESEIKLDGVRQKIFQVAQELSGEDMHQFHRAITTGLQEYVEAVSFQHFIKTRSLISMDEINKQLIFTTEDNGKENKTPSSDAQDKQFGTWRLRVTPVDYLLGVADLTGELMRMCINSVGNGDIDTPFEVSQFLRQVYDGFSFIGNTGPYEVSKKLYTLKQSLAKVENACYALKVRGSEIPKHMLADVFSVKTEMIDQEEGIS
The essentials: as §1

The target in another data set is T2, DHX30 (UniProt Q7L2E3).
T2 sequence: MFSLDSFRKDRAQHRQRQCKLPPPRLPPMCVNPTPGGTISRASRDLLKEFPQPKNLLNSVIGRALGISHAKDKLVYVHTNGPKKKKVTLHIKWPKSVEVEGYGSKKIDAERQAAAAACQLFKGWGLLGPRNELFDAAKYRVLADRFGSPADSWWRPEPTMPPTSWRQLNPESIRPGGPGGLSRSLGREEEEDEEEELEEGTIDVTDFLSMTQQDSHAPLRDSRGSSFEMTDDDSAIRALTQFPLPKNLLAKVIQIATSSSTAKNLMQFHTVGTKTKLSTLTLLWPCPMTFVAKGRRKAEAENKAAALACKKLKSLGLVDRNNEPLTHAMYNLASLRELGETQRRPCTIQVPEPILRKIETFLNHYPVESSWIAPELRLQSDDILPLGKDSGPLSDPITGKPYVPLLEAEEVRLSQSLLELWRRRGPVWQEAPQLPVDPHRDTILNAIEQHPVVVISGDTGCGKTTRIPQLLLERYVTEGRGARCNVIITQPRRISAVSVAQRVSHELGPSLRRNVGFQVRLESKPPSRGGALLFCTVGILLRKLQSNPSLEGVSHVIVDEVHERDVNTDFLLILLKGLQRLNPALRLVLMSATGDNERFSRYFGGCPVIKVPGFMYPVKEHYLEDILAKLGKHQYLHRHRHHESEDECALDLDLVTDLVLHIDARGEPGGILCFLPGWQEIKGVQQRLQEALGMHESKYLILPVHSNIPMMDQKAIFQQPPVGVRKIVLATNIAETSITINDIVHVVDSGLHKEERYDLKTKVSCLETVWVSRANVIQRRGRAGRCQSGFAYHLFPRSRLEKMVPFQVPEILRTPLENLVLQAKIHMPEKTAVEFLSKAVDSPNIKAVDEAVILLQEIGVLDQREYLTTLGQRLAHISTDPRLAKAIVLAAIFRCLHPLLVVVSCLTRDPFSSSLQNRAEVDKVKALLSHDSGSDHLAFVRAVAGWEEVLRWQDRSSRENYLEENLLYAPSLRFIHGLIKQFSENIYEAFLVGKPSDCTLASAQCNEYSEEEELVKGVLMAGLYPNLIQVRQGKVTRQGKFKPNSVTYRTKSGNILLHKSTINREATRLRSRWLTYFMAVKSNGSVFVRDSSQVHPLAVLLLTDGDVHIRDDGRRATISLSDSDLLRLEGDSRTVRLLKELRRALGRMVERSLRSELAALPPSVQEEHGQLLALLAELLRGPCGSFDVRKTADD
The essentials: as §1

For another data set, the target named is RPS25 (UniProt P62851). In short, it runs like this: as §1
A further data set deals with RPS5 (UniProt P46782). In short, it runs like this: as §1
For another data set, the target named is T3, CSTF2T (UniProt Q9H0L4).
T3 sequence: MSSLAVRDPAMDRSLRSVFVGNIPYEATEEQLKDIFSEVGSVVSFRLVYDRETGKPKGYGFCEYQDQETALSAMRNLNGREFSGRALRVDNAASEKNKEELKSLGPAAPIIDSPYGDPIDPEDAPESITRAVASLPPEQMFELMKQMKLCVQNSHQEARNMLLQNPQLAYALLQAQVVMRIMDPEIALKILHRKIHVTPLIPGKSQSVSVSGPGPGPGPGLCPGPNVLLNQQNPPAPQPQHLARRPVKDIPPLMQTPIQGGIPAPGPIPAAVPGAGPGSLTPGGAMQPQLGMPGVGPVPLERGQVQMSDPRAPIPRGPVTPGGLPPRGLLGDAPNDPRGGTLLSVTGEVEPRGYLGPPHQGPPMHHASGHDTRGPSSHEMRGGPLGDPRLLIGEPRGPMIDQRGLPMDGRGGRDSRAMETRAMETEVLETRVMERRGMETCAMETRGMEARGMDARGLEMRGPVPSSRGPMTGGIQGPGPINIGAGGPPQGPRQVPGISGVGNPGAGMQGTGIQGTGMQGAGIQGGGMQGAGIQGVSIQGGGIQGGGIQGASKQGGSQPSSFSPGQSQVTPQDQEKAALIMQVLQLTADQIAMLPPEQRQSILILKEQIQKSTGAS
In short, it runs like this:
as §1

For the next data set, the target named is MRPS7 (UniProt Q9Y2R9). In short, it runs like this:
as §1

GPATCH11, sequence (Q8N954 whole entry): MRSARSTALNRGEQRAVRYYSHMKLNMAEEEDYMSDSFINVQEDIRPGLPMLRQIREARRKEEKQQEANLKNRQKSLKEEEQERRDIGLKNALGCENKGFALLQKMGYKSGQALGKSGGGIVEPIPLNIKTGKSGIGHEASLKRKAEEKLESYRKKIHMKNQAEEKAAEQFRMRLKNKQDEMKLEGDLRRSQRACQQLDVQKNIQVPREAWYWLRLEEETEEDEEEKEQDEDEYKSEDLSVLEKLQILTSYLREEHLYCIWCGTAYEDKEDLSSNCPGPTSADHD

In general, pKd refers to the Kd on a negative log10 scale, so that one unit is a factor of ten. A high value points to a small Kd. Take AAUAAA: the negative logarithm of the Kd (pKd) is 7.49 in the data set with GPATCH11 and 8.22 with TSNAX.
CUGUCCU: the negative logarithm of the Kd (pKd) with DHX30 was 7.23; in the data set with RPS25 it was 7.60; with RPS5, 6.84.
As to UAUUUAU, the values for the pKd with CSTF2T and with MRPS7 were 6.59 and 7.53, respectively.
